# Test results from US20210277104A1 (Janssen / Centocor, published 2021).
# Numbering of substitutions follows the chain as printed. Names and notes keep the numbering of the source.
# B1: TNV148 (antibody, V domains shown)
# VH: QVQLVESGGGVVQPGRSLRLSCAASGFIFSSYAMHWVRQAPGNGLEWVAFMSYDGSNKKYADSVKGRFTISRDNPKNTLYLQMNSLRAEDTAVYYCARDRGIAAGGNYYYYGMDVWGQGTTVTVSS
# VL: EIVLTQSPATLSLSPGERATLSCRASQSVYSYLAWYQQKPGQAPRLLIYDASNRATGIPARFSGSGSGTDFTLTISSLEPEDFAVYYCQQRSNWPPFTFGPGTKVDIKR
# B2: TNV196 (antibody, V domains shown)
# VH: B1 VH with I28T, N43K, M51I, Y60S, I70V, P75S, Y80F, Y94F, A103G
# VL: EIVLTQSPATLSLSPGERATLSCRASQSVYSYLAWYQQKPGQAPRLLIYDASNRATGIPARFSGSGSGTDFTLTISSLEPEDFAVYYCQQRSNWPPFTFGPGTKVDIK
# B3: TNV86 (antibody, human IgG1, V domains shown)
# VH: B1 VH
# VL: B2 VL
# notes: Totally human IgG1 kappa from hybridoma, tested as hybridoma supernatant; Variable regions identical to TNV148; also called GenTNV86.14.34; C417A
# How the values were obtained:
# recombinant human TNFα [1] = target: T1, recombinant human TNFα (human, UniProt P01375 77-233, 125I-labeled in the receptor binding inhibition assay; unlabeled in the EIA); experiment: cell-based or functional assay
# recombinant human TNFα [2] = target: T1, recombinant human TNFα; experiment: inhibition of 125I-TNFα binding to plate-coated p55-sf2; reference TNV118 and TNV14
# Description: 50:1 of p55-sf2 at 0.5:g/ml in PBS was added to Optiplates to coat the wells during a one-hour incubation at 37° C. Serial dilutions of the eight TNV cell supernatants were prepared in 96-well round-bottom plates using PBS/0.1% BSA as diluent. […] The mixture was preincubated for one hour at RT. […] After 2 hrs at RT, Optiplates were washed three times with PBS-Tween. […] of Microscint-20 was added and the cpm bound determined using the TopCount […].
# The concentrations of the TNV mAbs in their respective cell supernatants were first determined by standard ELISA analysis for human IgG.
# recombinant human TNFα [3] = target: T1, recombinant human TNFα; experiment: Competition radioligand assay: inhibition of 5 ng/ml 125I-TNFα binding to plate-coated p55-sf2
Binder,neutralizing TNFα bioactivity (recombinant human TNFα [1]) [fold],fold better at blocking TNF binding than TNV118 and TNV14 (recombinant human TNFα [2]) [fold],IC50 (read off the curve) (recombinant human TNFα [3]) [ng/mL]
B1,4,~4,~4
B2,4,–,~4
B3,–,~4,–
